From patent US20220152105A1 (published 2022)

Target: T1, gp100 peptide on HLA-C*06:02 (human)
T1 peptide: HRRGSRSYV
Assay: multimer staining
Experimental: T cells (1×10⁵) were incubated for 30 minutes at 37° C. in the presence of 50 nM dasatinib (LC laboratories). The cells were then washed and incubated with 5-10 μg/ml of multimer for 30 minutes at room temperature, and R-phycoerythrin-conjugated AffiniPure Fab fragment goat anti-mouse IgG1 (Jackson ImmunoResearch Laboratories) was added for 15 minutes at 4° C. Next, the cells were washed three times and costained with an anti-CD8 mAb for 15 minutes at 4° C. Dead cells were finally discriminated using the LIVE/DEAD Fixable Dead Cell Stain kit.

- binding result: recognises
B1: C*06:02/gp100190-198 TCR (TCR, V domains shown)
Valpha: KNQVEQSPQSLIILEGKNCTLQCNYTVSPFSNLRWYKQDTGRGPVSLTIMTFSENTKSNGRYTATLDADTKQSSLHITASQLSDSASYICVVRGMDSSYKLIFGSGTRLLVRP
Vbeta: DAMVIQNPRYQVTQFGKPVTLSCSQTLNHNVMYWYQQKSSQAPKLLFHYYDKDFNNEADTPDNFQSRRPNTSFCFLDIRSPGLGDAAMYLCATSSEDSSNQPQHFGDGTRLSIL
